This is an account of results in US20160207991A1.

Read-outs that look alike come from different tables or passages of the source.

The target in test [1] is human brain-derived neurotrophic factor (BDNF) (human) (UniProt P23560). In words: cell-based or functional assay.
Test [2] shares this target. In words: cell-based or functional assay. The source holds these as a separate data set.

human brain-derived neurotrophic factor (BDNF) (human), sequence (P23560 129-247 limits assumed): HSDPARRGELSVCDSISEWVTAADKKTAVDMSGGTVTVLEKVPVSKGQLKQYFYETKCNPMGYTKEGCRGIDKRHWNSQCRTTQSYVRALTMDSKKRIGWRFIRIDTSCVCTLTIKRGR

Regarding “TrkB-Fc (Sigma T8694) (from UniProt P15209 32-429) (Fc fusion)”, in test [1], the PathHunter pTrkB assay in U2OS TrkB/p75NTR cells, 300 pM BDNF stood at 24 nM and the pERK assay in U2OS TrkB/p75NTR cells, 150 pM BDNF was found to be 7.6 nM. Further, the PathHunter pTrkB assay in U2OS TrkB/p75NTR cells, 300 pM BDNF in test [2] was 4.4 nM.
